PMC11230438

Target: high-stability mutant of the MMP-9 catalytic domain lacking the fibronectin-like domain (MMP9CAT*) (human) (UniProt P14780)
Experiment: enzymatic activity inhibition assay

| Binder | Ki |
| --- | --- |
| N-TIMP2-PAT200 (protein) CSCSPVHPQQAFCNADVVIRAKAVSEKEVDSGNDIYGNPIKRIQYEIKQIKMFKGPEDIEFIYTAPSSAVCGVSLDVGGKKEYLIAGKAEGDGKMHITLCDFIVPWDTLSTTQKKSLNHRYQMGCEATPTPAPTAPTTPTPTPTTPAPTTPTTPATPAPTTPATPAPTPATPTPAAPAPTTPTPAAPAPTPATPTAPAPTTPTAPTAPTPATPATPAAPTPTPTTPTTPTAPAAPTPTAPTAPAPTAPTAPTAPATPAAPATPTPAPTAPATPTPAAPTTPTAPTPTPTPAPATPAAPAPTPATPAAPTTPAAPTAPAAPTTPTPT | 0.59 nM |
| N-TIMP2-PAT100 (protein) CSCSPVHPQQAFCNADVVIRAKAVSEKEVDSGNDIYGNPIKRIQYEIKQIKMFKGPEDIEFIYTAPSSAVCGVSLDVGGKKEYLIAGKAEGDGKMHITLCDFIVPWDTLSTTQKKSLNHRYQMGCETAPAAPATPAPTAPTPTPAAPAPTTPATPAPTPAAPAPAPTAPTAPAAPTAPATPAAPTTPTPTTPTPATPTPTAPAPATPTTPTPTAPAAPTPAPTTPA | 0.24 nM |
| N-TIMP2 (WT N-terminal domain of TIMP2 containing internal FLAG-tag, c-myc-tag and His-tag) (domain or fragment) CSCSPVHPQQAFCNADVVIRAKAVSEKEVDSGNDIYGNPIKRIQYEIKQIKMFKGPEDIEFIYTAPSSAVCGVSLDVGGKKEYLIAGKAEGDGKMHITLCDFIVPWDTLSTTQKKSLNHRYQMGCE | 0.32 nM |
